Patent publication US20130136743A1 (LABORATOIRE FRANCAIS DU FRACTIONNEMENT ET DES …, published 2013)
Changes are numbered by the printed parent chain.

Tests used:
[1] = molecular target: T1, AMHR-II/Fc fusion protein (human, UniProt Q16671 18-149, limits assumed); test: direct phage ELISA, ratio of specific binding; 3.00E+09 phages per well as printed
T1 construct: also called AMHR-II recombinant receptor expressed in the form of fusion protein with a region Fc; recombinant target; not shown: Fc region

[2] = molecular target: T1, AMHR-II/Fc fusion protein; test: direct phage ELISA, ratio of specific binding; 3.00E+10 phages per well as printed
[3] = molecular target: T1, AMHR-II/Fc fusion protein; test: direct phage ELISA, target coated at 500 ng/well; 3.00E+09 phages per well as printed
[4] = molecular target: T1, AMHR-II/Fc fusion protein; test: direct phage ELISA, target coated at 500 ng/well; 3.00E+10 phages per well as printed
[5] = molecular target: T1, AMHR-II/Fc fusion protein; test: direct phage ELISA, ratio of specific binding; 3.00E+09 phages per well as printed (third row)
[6] = molecular target: T1, AMHR-II/Fc fusion protein; test: direct phage ELISA, ratio of specific binding; 3.00E+09 phages per well as printed (second row)
[7] = molecular target: T1, AMHR-II/Fc fusion protein; test: direct phage ELISA, ratio of specific binding; 3.00E+10 phages per well as printed (second row)
[8] = molecular target: T1, AMHR-II/Fc fusion protein; test: direct phage ELISA, target coated at 500 ng/well; 3.00E+09 phages per well as printed (third row)
[9] = molecular target: T1, AMHR-II/Fc fusion protein; test: direct phage ELISA, target coated at 500 ng/well; 3.00E+09 phages per well as printed (second row)
[10] = molecular target: T1, AMHR-II/Fc fusion protein; test: direct phage ELISA, target coated at 500 ng/well; 3.00E+10 phages per well as printed (second row)
[11] = molecular target: T2, AMHRII receptor expressed on cells (cov434-AMHRII, Asc 1, META 2815) (human, UniProt Q16671 18-573); test: cell-based or functional assay
T2 sequence (looked up): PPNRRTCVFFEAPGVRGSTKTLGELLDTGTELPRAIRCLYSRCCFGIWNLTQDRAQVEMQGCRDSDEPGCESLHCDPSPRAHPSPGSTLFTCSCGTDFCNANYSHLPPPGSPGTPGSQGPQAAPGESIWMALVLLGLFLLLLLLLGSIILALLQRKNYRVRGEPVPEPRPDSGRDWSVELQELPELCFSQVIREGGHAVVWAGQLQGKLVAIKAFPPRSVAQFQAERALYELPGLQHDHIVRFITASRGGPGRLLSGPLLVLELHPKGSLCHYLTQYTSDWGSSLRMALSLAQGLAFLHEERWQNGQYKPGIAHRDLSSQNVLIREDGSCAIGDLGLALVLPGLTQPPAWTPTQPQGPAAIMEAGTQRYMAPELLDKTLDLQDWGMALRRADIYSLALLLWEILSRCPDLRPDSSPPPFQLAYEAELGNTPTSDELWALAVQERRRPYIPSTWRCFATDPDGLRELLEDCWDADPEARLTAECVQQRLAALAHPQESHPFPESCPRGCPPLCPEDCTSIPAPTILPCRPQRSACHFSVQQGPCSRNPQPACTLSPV

[12] = molecular target: T2, AMHRII receptor expressed on cells …; test: cell-based or functional assay; remark: listed apart in the source
[13] = molecular target: T2, AMHRII receptor expressed on cells …; test: cell-based or functional assay; remark: listed apart in the source
[14] = molecular target: T1, AMHR-II/Fc fusion protein; test: SPR, BIAcore X100; ratio against the chimeric 12G4
Procedure: (§1) The affinity of the antibodies for their antigen, AMHR-II, is determined by the SPR (Surface Plasmon Resonance) technique on BIACore X100 (BIACore, GE Healthcare). The AMHR-II recombinant receptor, expressed in the form of fusion protein with a region Fc, is immobilized by covalent coupling between its amine functions and the carboxyl groups of dextran activated in succinimide esters, present on the surface of the type CM5 sensor chip. The COOH groups of the sensor chip are activated for 7 minutes with EDC/NHS mixture (0.1 M of N-hydroxysuccinimide and 0.1 M of 3-(N,N-dimethylamino)propyl-N-ethylcarbodiimide) at a flow of 10 μl/min then the AMHR-II/Fc fusion protein, diluted to 5 μg/ml in 10 mM sodium acetate buffer, pH 4.0, is injected at […] on track 2 of the sensor chip so as to reach 300 RU. The ester groups that have not reacted with the amines of the fusion protein are deactivated by injection of a solution of ethanolamine-HCl 1M, pH 8.5 for 7 min at a flow of 10 μl:min. Track 1, serving as negative control, was activated and deactivated like track 2.
(§2) All the measurements are carried out at 25° C. The antibodies to be analysed are diluted in HBS-EP running buffer (BIACore, GE Healthcare) at concentrations from 6.25 to 3333 nM and injected on the sensor chip for 2 min at a flow of 30 μl/min. The dissociation step is monitored for 10 min and then the surface is regenerated by injection of 10 mM glycine buffer, pH 1.5 for 30 s at 10 μl/min.
(§3) The sensorgrams obtained are analysed using the 1:2 kinetic model of the BIAevaluation 3.1 software.

[15] = molecular target: T1, AMHR-II/Fc fusion protein; test: SPR, BIAcore X100; AMHR-II/Fc immobilised on CM5 chip, antibody injected; 25 C
Procedure: as §1, §2, §3

[16] = molecular target: T2, AMHRII receptor expressed on cells …; test: saturation binding of 125I-labelled antibody to cov434-AMHRII cells, Scatchard analysis
Procedure: Briefly, KD was determined by the saturation method, by adding increasing doses of radiolabelled antibody to a constant number of cov434-AMHRII cells. […] For each antibody, fourfold dilutions were carried out in PBS/BSA 0.5% from the solutions of labelled and unlabelled antibody (84.4 μg/ml). The nonspecific fixation was evaluated by incubating the cells in the presence of a 100 times molar excess of unlabelled antibody.
After incubation, the samples were frozen in liquid nitrogen and then analysed in a gamma counter. The specific fixation was determined by subtracting the fixation obtained in the presence of an excess of unlabelled antibody.

B1: mVH-VL, murine antibody mLFB112 expressed as scFv on phage (scFv, part only; not given: scFv linker, part only)
scFv, part: QVQLQQSGPELVKPGASVRMSCKASGYTFTSYHIHWVKQRPGQGLEWIGWIYPGDDSTKYNEKFKGKTTLTADKSSSTAYMLLSSLTSEDSAIYFCTRGDRFAYWGQGTLVTVSAQIVLTQSPAIMSASLGEGITLTCSASSSVRYIHWYQQKSGTSPKLLIYSTSNLASGVPSRFSGSGSGTFHSLTISSVEAEDAADYYCLQWSSYPWTFGGGTKLEIK
B1 was tested, and the Ratio mVH-VL/huVH-VL [1] was 4.7, the Ratio mVH-VL/huVH-VL [2] was 2.4 and the OD 450 nm, +covering [3] was 1.57 OD. The OD 450 nm, Diff (specific binding) [3] was 1.51 OD, the OD 450 nm, +covering [4] was 2.81 OD and the OD 450 nm, Diff (specific binding) [4] was 2.65 OD. It also gave a Ratio mVH-VL/huVH-VL [5] of 5.2, a Ratio mVH-VL/huVH-VL [6] of 5.2 and a Ratio mVH-VL/huVH-VL [7] of 3.6. For the same binder, the OD 450 nm, +covering [8] was 0.495 OD, the OD 450 nm, Diff (specific binding) [8] was 0.446 OD and the OD 450 nm, +covering [9] was 0.946 OD. For the same binder, the OD 450 nm, Diff (specific binding) [9] was 0.887 OD, the OD 450 nm, +covering [10] was 2.19 OD and the OD 450 nm, Diff (specific binding) [10] was 2.11 OD.

B2: huVH-VL, humanized antibody huLFB112 expressed as scFv on phage (scFv, part only; not given: scFv linker and phage partner, V domains shown, not shown: another chain or arm of the molecule; large carriers; small tags and cut ends)
VH: QVQLVQSGAEVKKPGASVKVSCKASGYTFTSYHIHWVRQAPGQRLEWMGWIYPGDDSTKYSQKFQGRVTITRDTSASTAYMELSSLRSEDTAVYYCTRGDRFAYWGQGTLVTVSS
VL: DIQMTQSPSTLSASVGDRVTITCRASSSVRYIAWYQQKPGKAPKLLIYSTSSLESGVPSRFSGSGSGTEFTLTISSLQPDDFATYYCLQWSSYPWTFGGGTKVEIK
B2 gave an OD 450 nm, +covering [3] of 0.395 OD, an OD 450 nm, Diff (specific binding) [3] of 0.323 OD and an OD 450 nm, +covering [4] of 1.25 OD. For the same binder, the OD 450 nm, Diff (specific binding) [4] was 1.1 OD, the OD 450 nm, +covering [8] was 0.135 OD and the OD 450 nm, Diff (specific binding) [8] was 0.086 OD. It also gave an OD 450 nm, +covering [9] of 0.226 OD, an OD 450 nm, Diff (specific binding) [9] of 0.17 OD and an OD 450 nm, +covering [10] of 0.689 OD. It also gave an OD 450 nm, Diff (specific binding) [10] of 0.593 OD.

B3: mutated humanized 12G4 antibody 3C-23K produced in YB2/0 (antibody, human IgG1, kappa, V domains shown)
VH: B2 VH with Q3R
VL: DIQMTQSPSTLSASVGDRVTITCRASSSVRYIAWYQQKPGKAPKLLTYPTSSLKSGVPSRFSGSGSGTEFTLTISSLQPDDFATYYCLQWSSYPWTFGGGTKVEIKR
notes: Chains without leader; also called 3C_23K YB2/0; 3C-23K-YB2/0
For B3, the “50% relative, ADCC on the COV434-AMHRII line (chimeric antibody = 1)” value [11] was 0.84, the “EC50, ADCC on Asc 1 cells” value [11] was about 2.24 ng/mL and the “EC50, ADCC on META 2815 cells” value [11] was 30.5 ng/mL. The “fold cytotoxic activity on Asc 1 cells against 3C-23K-CHO” value [11] was about 40 fold, the “fold cytotoxic activity on META 2815 cells against 3C-23K-CHO” value [11] was about 146 fold and the “% of lysis of ASC1 cells (ADCC with NK cells, LDH release) at 0.001 ng/ml antibody” value [12] was 0%. For the same binder, the “% of lysis of ASC1 cells (ADCC with NK cells, LDH release) at 0.005 ng/ml antibody” value [12] was 8%, the “% of lysis of ASC1 cells (ADCC with NK cells, LDH release) at 0.05 ng/ml antibody” value [12] was 10% and the “% of lysis of ASC1 cells (ADCC with NK cells, LDH release) at 0.5 ng/ml antibody” value [12] was 26%. The “% of lysis of ASC1 cells (ADCC with NK cells, LDH release) at 5 ng/ml antibody” value [12] was 51%, the “% of lysis of ASC1 cells (ADCC with NK cells, LDH release) at 50 ng/ml antibody” value [12] was 67% and the “% of lysis of ASC1 cells (ADCC with NK cells, LDH release) at 500 ng/ml antibody” value [12] was 79%. For the same binder, the “% of lysis of ASC1 cells (ADCC with NK cells, LDH release) at 5000 ng/ml antibody” value [12] was 75%, the “EC50 (ng/ml), ADCC on ASC1 cells” value [13] was 1.7 ng/mL and the “Emax (% of lysis), ADCC on ASC1 cells” value [13] was 79 % of lysis. The “KD chimeric/KD mutated” value [14] was 10, the Kd [15] was 21 nM and the koff [15] was 0.00086 s⁻¹. The kon [15] was 40000 M⁻¹ s⁻¹, the Kd [16] was 5.3 nM and the “fold affinity against the original murine 12G4 antibody” value [16] was about 3 fold.
